Experimental data from PMC11003968 (Scientific Reports, 2024).

Target: IsdB Y165A, site-directed mutant of Staphylococcus aureus IsdB (Staphylococcus aureus, UniProt Q2FZF0 41-613, Y165A)
Assay: ELISA
Settings: both partners purified

B1: Human hemoglobin A (oxyhemoglobin) (complex)
chain 1: not shown
chain 2: not shown
Kd: 80 ± 11 µM
